Earlier results on 1 substance are cited in paper PMC4321873.

This series has as its target Glu286 (UniProt position 286, FFGHPEVYIIV). The series is described as follows: kinetics.

“Cytochrome c oxidase (aa3-type), subunit I (Rhodobacter sphaeroides)”: the pKa entry was “∼9.4”.
